Assays:
[1] = molecular target: recombinant human CD3 epsilon & delta (rhCD3ε & δ), Creative BioMart cat #CD3E&CD3D-219H (human) (UniProt P07766); test: SPR
[2] = molecular target: T1, Fc-tagged EpCAM (R&D Systems, cat #960-EP-050), human, coupled to SPR chip (human, UniProt P16422 24-265); test: SPR
T1 construct: Bought reagent; also called human EpCAM; EpCAM chip; not shown: Fc tag of the bought reagent
T1 sequence (looked up): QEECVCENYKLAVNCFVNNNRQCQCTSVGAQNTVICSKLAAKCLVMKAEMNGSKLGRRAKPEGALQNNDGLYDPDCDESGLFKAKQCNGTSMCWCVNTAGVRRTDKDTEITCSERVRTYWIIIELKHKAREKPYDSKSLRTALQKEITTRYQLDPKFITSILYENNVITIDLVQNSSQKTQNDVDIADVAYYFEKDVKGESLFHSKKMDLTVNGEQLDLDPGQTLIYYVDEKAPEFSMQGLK

[3] = molecular target: T2, human CD3 on cells (CD3+ Jurkat cells; purified human CD3 positive T cells) (human, UniProt P07766 23-207); test: cell-based or functional assay
T2 sequence (P07766 23-207): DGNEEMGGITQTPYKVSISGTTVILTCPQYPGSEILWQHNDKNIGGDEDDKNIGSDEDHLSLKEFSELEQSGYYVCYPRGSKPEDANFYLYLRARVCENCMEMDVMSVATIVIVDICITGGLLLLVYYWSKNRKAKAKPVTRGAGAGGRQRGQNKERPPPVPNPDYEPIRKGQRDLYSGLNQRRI

[4] = molecular target: T3, human EpCAM expressed on cells (CHO cells stably transfected with human EpCAM); EpCAM-positive human tumor … (human, UniProt P16422 24-314); test: competition flow cytometry on EpCAM-CHO cells
T3 construct: whole, on cells; also called EpCAM-CHO; hEp-CHO 4-12B
T3 sequence (looked up): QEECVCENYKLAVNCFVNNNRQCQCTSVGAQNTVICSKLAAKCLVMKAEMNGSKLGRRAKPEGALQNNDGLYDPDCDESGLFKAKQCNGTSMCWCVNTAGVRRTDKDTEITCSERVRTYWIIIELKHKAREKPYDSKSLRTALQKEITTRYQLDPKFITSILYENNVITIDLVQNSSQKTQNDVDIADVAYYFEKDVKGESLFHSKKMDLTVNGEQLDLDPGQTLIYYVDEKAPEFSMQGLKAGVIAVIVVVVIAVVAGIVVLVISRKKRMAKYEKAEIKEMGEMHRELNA

[5] = molecular target: T2, human CD3 on cells (CD3+ Jurkat cells; …); test: competition flow cytometry on CD3+ Jurkat cells
[6] = molecular target: T4, recombinant human EpCAM (rhEpCAM), coated on ELISA plate (human, UniProt P16422 24-265); test: sandwich ELISA: rhEpCAM coated, biotin-conjugated protein L detection
T4 construct: Bought reagent
T4 sequence (looked up): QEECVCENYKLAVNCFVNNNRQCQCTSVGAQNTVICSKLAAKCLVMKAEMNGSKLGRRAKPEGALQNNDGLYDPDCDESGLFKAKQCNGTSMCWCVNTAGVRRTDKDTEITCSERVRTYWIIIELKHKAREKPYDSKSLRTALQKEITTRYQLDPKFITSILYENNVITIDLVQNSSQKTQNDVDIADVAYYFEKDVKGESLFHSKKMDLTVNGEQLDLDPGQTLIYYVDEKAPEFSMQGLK

[7] = molecular target: T4, recombinant human EpCAM (rhEpCAM), …; test: sandwich ELISA: rhEpCAM coated, peroxidase-conjugated protein L detection
[8] = molecular target: recombinant human CD3 epsilon & delta (rhCD3ε & δ), Creative BioMart cat #CD3E&CD3D-219H (human) (UniProt P07766); test: sandwich ELISA: rhCD3ε & δ coated, peroxidase-conjugated protein L detection
[9] = molecular target: T5, recombinant human CEA (Abcam cat #ab742), coated on ELISA plate (human, UniProt P06731 35-685, limits assumed); test: sandwich ELISA: recombinant human CEA coated, biotin-conjugated protein L detection
T5 construct: also called CEA antigen
T5 sequence (looked up): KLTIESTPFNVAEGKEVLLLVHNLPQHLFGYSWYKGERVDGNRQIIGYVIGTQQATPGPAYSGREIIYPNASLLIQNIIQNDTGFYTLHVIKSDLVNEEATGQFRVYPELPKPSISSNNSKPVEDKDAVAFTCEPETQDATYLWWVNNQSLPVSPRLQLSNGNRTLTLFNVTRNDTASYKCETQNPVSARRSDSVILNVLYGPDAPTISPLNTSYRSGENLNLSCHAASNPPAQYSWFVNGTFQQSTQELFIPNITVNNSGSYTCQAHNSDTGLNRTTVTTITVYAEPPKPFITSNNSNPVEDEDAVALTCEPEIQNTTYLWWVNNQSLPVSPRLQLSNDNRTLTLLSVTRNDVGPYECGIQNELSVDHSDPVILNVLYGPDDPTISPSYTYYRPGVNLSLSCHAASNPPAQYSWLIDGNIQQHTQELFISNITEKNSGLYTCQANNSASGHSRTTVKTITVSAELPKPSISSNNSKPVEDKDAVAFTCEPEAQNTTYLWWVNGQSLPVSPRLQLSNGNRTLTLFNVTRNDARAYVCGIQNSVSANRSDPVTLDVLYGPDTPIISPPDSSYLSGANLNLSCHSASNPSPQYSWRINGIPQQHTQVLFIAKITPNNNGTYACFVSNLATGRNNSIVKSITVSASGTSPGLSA

[10] = molecular target: T6, recombinant human HER2 (AcroBiosystems cat #HE2-H525), coated on ELISA plate (human, UniProt P04626 23-652); test: sandwich ELISA: recombinant human HER2 coated, biotin-conjugated protein L detection
T6 construct: also called HER2 antigen

[11] = molecular target: recombinant human CD3 epsilon & delta (rhCD3ε & δ), Creative BioMart cat #CD3E&CD3D-219H (human) (UniProt P07766); test: SPR (Biacore 3000), His-tagged CD3εδ coupled to chip, ProTIA as analyte at 5-6 concentrations
[12] = molecular target: T1, Fc-tagged EpCAM (R&D Systems, cat …); test: SPR (Biacore 3000), Fc-tagged EpCAM coupled to chip, ProTIA as analyte at 5-6 concentrations

recombinant human CD3 epsilon & delta (rhCD3ε & δ), Creative BioMart cat #CD3E&CD3D-219H (human), sequence (P07766 23-126, stated change not applied, chain 1 of 2): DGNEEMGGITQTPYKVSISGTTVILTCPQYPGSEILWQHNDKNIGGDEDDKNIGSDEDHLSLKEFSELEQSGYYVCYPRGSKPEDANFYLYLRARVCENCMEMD
recombinant human CD3 epsilon & delta (rhCD3ε & δ), Creative BioMart cat #CD3E&CD3D-219H (human), sequence (P04234 22-105, stated change not applied, chain 2 of 2, further chain): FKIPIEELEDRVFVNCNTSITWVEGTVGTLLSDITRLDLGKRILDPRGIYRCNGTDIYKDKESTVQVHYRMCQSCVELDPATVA

fold stronger binding affinity than untreated and non-cleavable ProTIA [1]: 10 fold | fold stronger binding affinity than untreated and non-cleavable ProTIA [2]: ~10 fold | fold stronger binding affinity than untreated and non-cleavable ProTIA [4]: ~10 fold | fold stronger binding affinity than untreated and non-cleavable ProTIA [5]: ~30 fold | EC50 [6]: 0.11 nM | EC50 [7]: 0.12 nM | EC50 [8]: 0.31 nM | binding result [9]: no binding | binding result [10]: no binding | Kd [11]: 2.22 nM | Kd [12]: 1.15 nM
B1: protease-treated (MMP-9 cleaved) AC1476 anti-EpCAM×anti-CD3 ProTIA (bispecific antibody)
chain: DIQMTQSPSSLSASVGDRVTITCRSTKSLLHSNGITYLYWYQQKPGKAPKLLIYQMSNLASGVPSRFSSSGSGTDFTLTISSLQPEDFATYYCAQNLEIPRTFGQGTKVEIKGATPPETGAETESPGETTGGSAESEPPGEGQVQLVQSGPGLVQPGGSVRISCAASGYTFTNYGMNWVKQAPGKGLEWMGWINTYTGESTYADSFKGRFTFSLDTSASAAYLQINSLRAEDTAVYYCARFAIKGDYWGQGTLLTVSSGGGGSDIQMTQSPSSLSASVGDRVTITCRASQDIRNYLNWYQQKPGKAPKLLIYYTSRLESGVPSRFSGSGSGTDYTLTISSLQPEDFATYYCQQGNTLPWTFGQGTKVEIKGATPPETGAETESPGETTGGSAESEPPGEGEVQLVESGGGLVQPGGSLRLSCAASGYSFTGYTMNWVRQAPGKGLEWVALINPYKGVSTYNQKFKDRFTISVDKSKNTAYLQMNSLRAEDTAVYYCARSGYYGDSDWYFDVWGQGTLVTVSSGTAEAASASGLSGRSDNHSPLG
notes: mass 58,071 Da); also called MMP-9 treated AC1476; MMP-9 treated AC1516
EC50, LDH release cytotoxicity, purified human CD3 positive T cells with OVCAR-3 cells 5:1 [3]: 0.0003 nM | EC50, LDH release cytotoxicity, purified human CD3 positive T cells with SK-OV-3 cells 5:1 [3]: 0.0024 nM

Source: patent US12060424 (AMUNIX PHARMACEUTICALS, dated 2024)
